Substrate in the series: O=[N+]([O-])c1ccc(O[C@@H]2OC[C@@H](O)[C@H](O)[C@H]2O)cc1
In words: purified protein. The format is biochemical, Caldicellulosiruptor owensensis. The conditions noted are these: 50 mM sodium citrate, 150 mM NaCl, pH 5.0, 75 °C, 0.05 to 2.4 mM pNPX.

B1: Coxyl A (Caldicellulosiruptor owensensis OL) (protein)
chain: MKIELYPEKTSGKINKFWTKCVGSCHAATALREDWRRQLRKCRQELGFEYLRCHGWLNDDMSVCFRNEDGKLWFSFFNIDTIIDFLLDIGMKPFIELSFMPEALASGTKTVFHYKGNITPPKSYEEWGQLVEELARHLVKRYGKNEVKEWFFEVWNEPNLKDFFWAGTMEEYFELYKHAAFAIKKVDPDLKVGGPASAIDAWIPELKEFCEKNNVPIDFISTHQYPTDLAFSTSSNMEEAMAKAKRGELADRVKKAIEEASPLPVYYTEWNNSPSPRDPYHDIPYDAAFIVKTIIDIVDLPLGCYSYWTFTDIFEECGQSSLPFHGGFGLLNIHGIPKPSYRAFQILDKLNGEKINAEAEDISPTIDFIATKNNNEIVLIISNHNVPLSPIENENILVTVNGLKGCKEISIERIDEYNANPKRKWVEMGSPEYLNKDQIEELIEASKPKKEVVSWRITGDNQLAFELNILPHSVLGVTIKTE
notes: His-tagged in pET-28b(+), E. coli BL21(DE3); homodimer
For B1, the Michaelis-Menten constant (Km) (in general, the concentration of substrate that gives half-maximal velocity) is 1600 ± 100 µM; the maximum rate (Vmax) (in general, the rate approached at saturating substrate) is 3930 µmol/min/mg; the kcat (commonly the maximal rate divided by the concentration of active sites) was determined as 3630 ± 122 s⁻¹.

Values taken from publication PMC4134300, “Biochemical Characterization of Two Thermostable Xylanolytic Enzymes Encoded by a Gene Cluster of Caldicellulosiruptor owensensis” (PLoS ONE, 2014).
